# Experimental data taken from patent US20180244785A1 (MERRIMACK PHARMACEUTICALS, published 2018).
# T1: soluble FGFR1c receptor protein (human, UniProt P11362 141-376)
# T1 sequence: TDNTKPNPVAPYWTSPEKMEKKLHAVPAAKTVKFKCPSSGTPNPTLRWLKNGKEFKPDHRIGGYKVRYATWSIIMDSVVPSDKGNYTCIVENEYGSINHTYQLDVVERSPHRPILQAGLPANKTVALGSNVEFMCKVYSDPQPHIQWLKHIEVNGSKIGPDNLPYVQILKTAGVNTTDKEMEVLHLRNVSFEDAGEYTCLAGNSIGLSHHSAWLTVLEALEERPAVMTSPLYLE
# T2: soluble FGFR4 receptor protein (human, UniProt P22455 144-369)
# T2 sequence: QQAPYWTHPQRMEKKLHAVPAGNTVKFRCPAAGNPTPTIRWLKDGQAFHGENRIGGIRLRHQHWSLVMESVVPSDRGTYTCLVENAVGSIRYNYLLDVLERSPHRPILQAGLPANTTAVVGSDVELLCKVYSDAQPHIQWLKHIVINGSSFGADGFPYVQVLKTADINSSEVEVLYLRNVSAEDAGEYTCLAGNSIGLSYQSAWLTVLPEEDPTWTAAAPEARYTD
# T3: soluble FGFR3c receptor protein (human, UniProt P22607 141-372)
# T3 sequence: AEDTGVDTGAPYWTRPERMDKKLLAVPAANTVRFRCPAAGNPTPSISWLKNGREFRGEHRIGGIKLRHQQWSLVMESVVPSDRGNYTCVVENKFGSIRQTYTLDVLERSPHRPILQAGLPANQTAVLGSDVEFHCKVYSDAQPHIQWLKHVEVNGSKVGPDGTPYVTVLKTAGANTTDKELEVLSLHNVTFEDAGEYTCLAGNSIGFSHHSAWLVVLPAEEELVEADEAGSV
# Legend:
# Experiment in all cases: BLI Octet RED96, antibody on anti-hIgG Fc tip
# [1] = target: T1, soluble FGFR1c receptor protein
# Method: (§1) Briefly, the Pall ForteBio Octet RED96 Bio-Layer Interferometry system was used to determine the specificity of anti-FGFR antibodies for FGFR1c, FGFR2c, FGFR3c, and FGFR4. The antibodies and soluble receptor proteins were prepared in PBS at a concentration of 300 nM. First, the candidate antibodies were immobilized on the surface of anti-human IgG Fc biosensor tips for 120 seconds. After immobilization, the biosensors were dipped in PBS solution for 60 seconds (baseline step) to assess assay drift, and determine loading level of antibodies. The baseline step was followed by an association step of 300 seconds wherein the binding interaction between the immobilized antibodies and soluble receptors was measured. Following the association step, the biosensors were dipped into PBS buffer for 600 seconds to measure the dissociation of the bound receptor proteins from the immobilized antibodies. Each binding response was measured and reported real time on a sensorgram trace. For data analysis, a simple 1:1 binding model was used which measures the rate of complex formation of one immobilized antibody and one soluble receptor protein.
# [2] = target: T2, soluble FGFR4 receptor protein
# Method: as §1
# [3] = target: soluble FGFR2c receptor protein (human, UniProt P21802 148-377)
# Chain of soluble FGFR2c receptor protein (P21802 148-377): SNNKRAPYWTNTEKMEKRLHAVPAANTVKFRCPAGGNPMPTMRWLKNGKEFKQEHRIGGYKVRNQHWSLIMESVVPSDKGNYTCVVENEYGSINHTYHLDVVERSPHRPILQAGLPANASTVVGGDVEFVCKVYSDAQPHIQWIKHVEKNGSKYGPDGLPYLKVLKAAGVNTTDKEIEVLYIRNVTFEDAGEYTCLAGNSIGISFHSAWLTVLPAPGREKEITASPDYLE
# Method: as §1
# [4] = target: T3, soluble FGFR3c receptor protein
# Method: as §1
Binder,Kd [1] [nM],koff [1] [s⁻¹],kon [1] [M⁻¹ s⁻¹],Kd [2] [nM],koff [2] [s⁻¹],kon [2] [M⁻¹ s⁻¹],Kd [3] [nM],koff [3] [s⁻¹],kon [3] [M⁻¹ s⁻¹],Kd [4] [nM],koff [4] [s⁻¹],kon [4] [M⁻¹ s⁻¹]
"Vk2 combined with the VH of Ab15 (antibody, V domains shown, captured on anti-human IgG Fc tips) VH: EVQLLESGGGVVQPGRSLRLSCAASGFTFSSYAMHWVRQAPGKGLEWVAVISYDGSNKYYADSVKGRFTISRDNSKNTLSLQMNSLRVEDTAIYYCVRGAGRGYTYGPDGFDIWGQGTMVTVSS VL: DIVMTQTPLSLSVTPGQPASISCTSSRSLLHSDGKTYVYWYLQKPGQPPQLLIYELSNRFSGVPDRFSGSGSRTDFTLKISRVEAEDVGVYYCMQYIEAPLTFGGGTKVEIK",5.74,0.000313,54500,7.06,0.000888,126000,10.8,0.00228,211000,9.2,0.0011,120000
"Vk6 combined with the VH of Ab15 (antibody, V domains shown, captured on anti-human IgG Fc tips) VH: EVQLLESGGGVVQPGRSLRLSCAASGFTFSSYAMHWVRQAPGKGLEWVAVISYDGSNKYYADSVKGRFTISRDNSKNTLSLQMNSLRVEDTAIYYCVRGAGRGYTYGPDGFDIWGQGTMVTVSS VL: DIVMTQTPLSLSVTPGQPASISCKSSQSLLHSDGKTYLYWYLQKPGQPPQLLIYELSNRFSGVPDRFSGSGSGTDFTLKISRVEAEDVGVYYCMQYIEAPLTFGGGTKVEIK",6.45,0.000344,53400,9.31,0.00112,120000,14.3,0.00313,219000,12.9,0.00157,121000
"Vh1 combined with the VL of Ab15 (antibody, V domains shown, captured on anti-human IgG Fc tips) VH: EVQLVESGGGVVQPGRSLRLSCAASGFTFSSYAMHWVRQAPGKGLEWVAVISYDGSNKYYADSVKGRFTISRDNSKNTLYLQMNSLRAEDTAIYYCVRGAGRGYTYGPDGFDIWGQGTMVTVSS VL: DIVMTQTPLSLSVTPGQPASISCTSSRSLLHSDGKTYVYWYVQKSGQPPQLLIYELSNRFSGVPDRFSGSGSRTDFTLKISRVEAEDVGVYYCMQYIEAPLTFGGGTKVEIK",7.49,0.000356,47500,4.01,0.000682,170000,10.9,0.0024,221000,8.56,0.001,117000
"Vk11 combined with the VH of Ab15 (antibody, V domains shown, captured on anti-human IgG Fc tips) VH: EVQLLESGGGVVQPGRSLRLSCAASGFTFSSYAMHWVRQAPGKGLEWVAVISYDGSNKYYADSVKGRFTISRDNSKNTLSLQMNSLRVEDTAIYYCVRGAGRGYTYGPDGFDIWGQGTMVTVSS VL: DIVMTQSPLSLPVTPGEPASISCTSSRSLLHSDGKTYVYWYLQKPGQSPQVLIYELSNRFSGVPDRFSGSGSGTDFTLKISRVEAEDVGVYYCMQYIEAPLTFGGGTKVEIK",7.62,0.000327,42900,8.47,0.00106,125000,10.9,0.00231,212000,11.1,0.0013,117000
"Vk12 combined with the VH of Ab15 (antibody, V domains shown, captured on anti-human IgG Fc tips) VH: EVQLLESGGGVVQPGRSLRLSCAASGFTFSSYAMHWVRQAPGKGLEWVAVISYDGSNKYYADSVKGRFTISRDNSKNTLSLQMNSLRVEDTAIYYCVRGAGRGYTYGPDGFDIWGQGTMVTVSS VL: DIVMTQSPLSLPVTPGEPASISCTSSRSLLHSDGKTYVYWYLQKPGQSPQLLIYELSNRFSGVPDRFSGSGSGTDFTLKISRVEAEDVGVYYCMQYIEAPLTFGGGTKVEIK",6.51,0.000345,53000,7.01,0.000925,132000,9.76,0.0021,215000,6.38,0.000806,126000

# Further lines, results first:
Kd [1] [nM],koff [1] [s⁻¹],kon [1] [M⁻¹ s⁻¹],Kd [2] [nM],koff [2] [s⁻¹],kon [2] [M⁻¹ s⁻¹],Kd [3] [nM],koff [3] [s⁻¹],kon [3] [M⁻¹ s⁻¹],Kd [4] [nM],koff [4] [s⁻¹],kon [4] [M⁻¹ s⁻¹],Binder
5.84,0.000336,57600,8.33,0.00101,121000,13.1,0.00274,210000,8.7,0.00104,120000,"Vk7 combined with the VH of Ab15 (antibody, V domains shown, captured on anti-human IgG Fc tips) VH: EVQLLESGGGVVQPGRSLRLSCAASGFTFSSYAMHWVRQAPGKGLEWVAVISYDGSNKYYADSVKGRFTISRDNSKNTLSLQMNSLRVEDTAIYYCVRGAGRGYTYGPDGFDIWGQGTMVTVSS VL: DIVMTQSPLSLPVTPGEPASISCKSSQSLLHSDGKTYLYWYLQKPGQPPQLLIYELSNRFSGVPDRFSGSGSGTDFTLKISRVEAEDVGVYYCMQYIEAPLTFGGGTKVEIK"
4.7,0.000243,51700,8.75,0.00105,120000,12.7,0.00245,193000,12.3,0.00138,113000,"Vk1 combined with the VH of Ab15 (antibody, V domains shown, captured on anti-human IgG Fc tips) VH: EVQLLESGGGVVQPGRSLRLSCAASGFTFSSYAMHWVRQAPGKGLEWVAVISYDGSNKYYADSVKGRFTISRDNSKNTLSLQMNSLRVEDTAIYYCVRGAGRGYTYGPDGFDIWGQGTMVTVSS VL: DIVMTQTPLSLSVTPGQPASISCTSSRSLLHSDGKTYLYWYLQKPGQPPQLLIYELSNRFSGVPDRFSGSGSRTDFTLKISRVEAEDVGVYYCMQYIEAPLTFGGGTKVEIK"
5.41,0.000269,49700,2.84,0.000492,173000,7.55,0.00156,207000,6.41,0.000775,121000,"Vh2 combined with the VL of Ab15 (antibody, V domains shown, captured on anti-human IgG Fc tips) VH: EVQLVESGGGVVQPGRSLRLSCAASGFTFSSYAMHWVRQAPGKGLEWVAVISYDGSNKYYADSVKGRFTISRDNSKNTLYLQMNSLRAEDTAVYYCARGAGRGYTYGPDGFDIWGQGTMVTVSS VL: DIVMTQTPLSLSVTPGQPASISCTSSRSLLHSDGKTYVYWYVQKSGQPPQLLIYELSNRFSGVPDRFSGSGSRTDFTLKISRVEAEDVGVYYCMQYIEAPLTFGGGTKVEIK"
3.98,0.000215,54100,6.05,0.000752,124000,8.88,0.00176,198000,7,0.000891,127000,"Vk5 combined with the VH of Ab15 (antibody, V domains shown, captured on anti-human IgG Fc tips) VH: EVQLLESGGGVVQPGRSLRLSCAASGFTFSSYAMHWVRQAPGKGLEWVAVISYDGSNKYYADSVKGRFTISRDNSKNTLSLQMNSLRVEDTAIYYCVRGAGRGYTYGPDGFDIWGQGTMVTVSS VL: DIVMTQTPLSLSVTPGQPASISCRSSRSLLHSDGKTYVYWYLQKPGQPPQLLIYELSNRFSGVPDRFSGSGSGTDFTLKISRVEAEDVGVYYCMQYIEAPLTFGGGTKVEIK"
4.79,0.000262,54600,6.79,0.000855,126000,10.3,0.0022,214000,7.97,0.00101,126000,"Vk3 combined with the VH of Ab15 (antibody, V domains shown, captured on anti-human IgG Fc tips) VH: EVQLLESGGGVVQPGRSLRLSCAASGFTFSSYAMHWVRQAPGKGLEWVAVISYDGSNKYYADSVKGRFTISRDNSKNTLSLQMNSLRVEDTAIYYCVRGAGRGYTYGPDGFDIWGQGTMVTVSS VL: DIVMTQTPLSLSVTPGQPASISCTSSRSLLHSDGKTYVYWYLQKSGQPPQLLIYELSNRFSGVPDRFSGSGSRTDFTLKISRVEAEDVGVYYCMQYIEAPLTFGGGTKVEIK"
